From patent US20230270823A1 (WUXI BIOLOGICS IRELAND, published 2023)
Numbering of substitutions follows the chain as printed.

T1: IL-15Rβ/γ chain (IL-2Rβ and common gamma chain) on human CD8+ T cells and NK cells (human, UniProt P14784 27-551; P31785 23-369)
T1 sequence (looked up) 1: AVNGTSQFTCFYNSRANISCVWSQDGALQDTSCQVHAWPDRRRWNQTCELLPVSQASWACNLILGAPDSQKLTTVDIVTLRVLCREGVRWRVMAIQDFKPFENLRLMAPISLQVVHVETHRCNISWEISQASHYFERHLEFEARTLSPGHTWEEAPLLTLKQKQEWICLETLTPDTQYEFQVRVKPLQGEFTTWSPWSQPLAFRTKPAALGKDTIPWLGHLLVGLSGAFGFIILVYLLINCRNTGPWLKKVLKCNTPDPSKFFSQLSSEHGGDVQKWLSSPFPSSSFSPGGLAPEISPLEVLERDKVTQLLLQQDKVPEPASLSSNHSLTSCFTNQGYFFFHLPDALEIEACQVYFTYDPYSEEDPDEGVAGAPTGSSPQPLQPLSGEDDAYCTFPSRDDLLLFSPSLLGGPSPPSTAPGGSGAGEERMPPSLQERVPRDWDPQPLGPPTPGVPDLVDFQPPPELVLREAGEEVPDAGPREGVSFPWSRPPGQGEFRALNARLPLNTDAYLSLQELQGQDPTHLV
T1 sequence (looked up) 2: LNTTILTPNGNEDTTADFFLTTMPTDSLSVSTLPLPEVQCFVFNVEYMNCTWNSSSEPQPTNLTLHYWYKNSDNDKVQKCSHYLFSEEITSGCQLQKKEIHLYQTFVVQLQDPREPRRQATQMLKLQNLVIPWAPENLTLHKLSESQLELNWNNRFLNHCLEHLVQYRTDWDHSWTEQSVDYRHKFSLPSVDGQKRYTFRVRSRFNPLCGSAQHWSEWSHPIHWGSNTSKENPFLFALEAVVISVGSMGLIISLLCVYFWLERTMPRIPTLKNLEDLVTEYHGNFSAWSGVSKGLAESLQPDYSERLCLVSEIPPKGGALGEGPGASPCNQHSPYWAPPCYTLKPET

B1: W327151-TXU1.P1-V0001.uIgG1v805 (Fc fusion)
chain 1: NWVNVISADLKKIEDLIQSMHIDATLYTESDVHPSCKVTAMKCFLLELQVISLESGDASIHDTVENLIILANNSLSSNGNVTESGCKECEELEEKNIKEFLQSFVHIVQMFINTSGGGGSEPKSSDKTHTCPPCPAPELLRGPSVFLFPPKPKDTLYITREPEVTCVVVDVSHEDPEVKFNWYVDGVEVHNAKTKPREEQYNSTYRVVSVLTVLHQDWLNGKEYKCKVSNKARPAPIEKTISKAKGQPREPQVYTLPPCREEMTKNQVSLWCLVKGFYPSDIAVEWESNGQPENNYKTTPPVLDSDGSFFLYSKLTVDKSRWQQGNVFSCSVMHEALHNHYTQKSLSLSPG
chain 2: ITCPPPMSVEHADIWVKSYSLYSRERYICNSGFKRKAGTSSLTECVLNKATNVAHWTTPSLKCIRGGGGSEPKSSDKTHTCPPCPAPELLRGPSVFLFPPKPKDTLYITREPEVTCVVVDVSHEDPEVKFNWYVDGVEVHNAKTKPREEQYNSTYRVVSVLTVLHQDWLNGKEYKCKVSNKARPAPIEKTISKAKGQPREPQVCTLPPSREEMTKNQVSLSCAVKGFYPSDIAVEWESNGQPENNYKTTPPVLDSDGSFFLVSKLTVDKSRWQQGNVFSCSVMHEALHNHYTQKSLSLSPG
B2: W327151-TXU1.P1-V0002.uIgG1v805 (Fc fusion)
chain 1: B1 chain 1 with A8D, D9A
chain 2: B1 chain 2
B3: W327151-TXU1.P1-V0004.uIgG1v805 (Fc fusion)
chain 1: B1 chain 1 with A8D, D9L, L10K, K11A
chain 2: B1 chain 2
B4: W327151-TXU1.P1-V0005.uIgG1v805 (Fc fusion)
chain 1: NWVNVISDLKKIEDLIQSMHIDATLYTESDVHPSCKVTAMKCFLLELQVISLESGDASIHDTVEANLIILANNSLSSNGNVTESGCKECEELEEKNIKEFLQSFVHIVQMFINTSGGGGSEPKSSDKTHTCPPCPAPELLRGPSVFLFPPKPKDTLYITREPEVTCVVVDVSHEDPEVKFNWYVDGVEVHNAKTKPREEQYNSTYRVVSVLTVLHQDWLNGKEYKCKVSNKARPAPIEKTISKAKGQPREPQVYTLPPCREEMTKNQVSLWCLVKGFYPSDIAVEWESNGQPENNYKTTPPVLDSDGSFFLYSKLTVDKSRWQQGNVFSCSVMHEALHNHYTQKSLSLSPG
chain 2: B1 chain 2
B5: W327151-TXU1.P1-V0006.uIgG1v805 (Fc fusion)
chain 1: B4 chain 1 with A65N, N66A
chain 2: B1 chain 2

Legend:
[1] = molecular target: T1, IL-15Rβ/γ chain (IL-2Rβ and common …); test: cell-based or functional assay
[2] = molecular target: IL-15Rβ/γ chain (IL-2Rβ and common gamma chain) on cyno CD8+ T cells and NK cells (cynomolgus monkey); test: cell-based or functional assay

Binder | EC50, % Ki67 expression, human CD8+ T cells [1] [nM] | EC50, % Ki67 expression, human NK cells [1] [nM] | Fold reduced (EC50, % Ki67), human CD8+ T cells [1] [fold] | Fold reduced (EC50, % Ki67), human NK cells [1] [fold] | EC50, % Ki67 expression, cyno donor 1 CD8+ T cells [2] [nM] | EC50, % Ki67 expression, cyno donor 1 NK cells [2] [nM] | Fold reduced (EC50, % Ki67), cyno donor 1 CD8+ T cells [2] [fold] | Fold reduced (EC50, % Ki67), cyno donor 1 NK cells [2] [fold] | EC50, % Ki67 expression, cyno donor 2 CD8+ T cells [2] [nM] | EC50, % Ki67 expression, cyno donor 2 NK cells [2] [nM] | Fold reduced (EC50, % Ki67), cyno donor 2 CD8+ T cells [2] [fold] | Fold reduced (EC50, % Ki67), cyno donor 2 NK cells [2] [fold]
B1 | 338 | 29.2 | 1840 | 1390 | 29.2 | 65.6 | 325 | 729 | – | – | – | –
B2 | 174 | 19.1 | 947 | 911 | – | – | – | – | – | – | – | –
B3 | 22.5 | 6.72 | 122 | 320 | 3.37 | 10.3 | 37 | 115 | – | – | – | –
B4 | 352 | 106 | 1910 | 5030 | – | – | – | – | 100 | 26.3 | 5890 | 3290
B5 | 13.5 | 1.58 | 73.5 | 75.1 | – | – | – | – | 2.59 | 1.04 | 153 | 130
